The values that follow come from patent US20230416330A1, “Optimized GIP Peptide Analogues” (Antag Therapeutics ApS, priority 2019, published 2023).

No end group written: not given here. *: point of attachment. C16 diacid = O=C(O)CCCCCCCCCCCCCCC(=O)*

This assay addresses T1, human GIP receptor (human, UniProt P48546 22-466).
T1 sequence (looked up): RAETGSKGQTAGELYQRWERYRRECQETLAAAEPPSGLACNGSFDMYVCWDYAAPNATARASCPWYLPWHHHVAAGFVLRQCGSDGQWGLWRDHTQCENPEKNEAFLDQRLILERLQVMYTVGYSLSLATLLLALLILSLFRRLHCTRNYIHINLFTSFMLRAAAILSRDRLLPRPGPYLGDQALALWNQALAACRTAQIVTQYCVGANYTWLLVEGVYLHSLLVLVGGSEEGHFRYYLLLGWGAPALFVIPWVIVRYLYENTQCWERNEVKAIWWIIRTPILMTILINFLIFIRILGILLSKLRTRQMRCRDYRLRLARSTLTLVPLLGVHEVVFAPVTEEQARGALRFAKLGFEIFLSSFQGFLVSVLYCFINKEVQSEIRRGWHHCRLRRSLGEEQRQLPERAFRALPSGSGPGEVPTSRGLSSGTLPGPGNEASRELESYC
Description: cell-based or functional assay.

B1: AT747 (peptide)
peptide: EGTFISDYSIAMDKIK(C16 diacid)QQDFVEWLLAEKPSSGAPPPS-OH
modifications: N-terminus assumed
SMILES: CC[C@H](C)[C@H](NC(=O)[C@H](CO)NC(=O)[C@H](Cc1ccc(O)cc1)NC(=O)[C@H](CC(=O)O)NC(=O)[C@H](CO)NC(=O)[C@@H](NC(=O)[C@H](Cc1ccccc1)NC(=O)[C@@H](NC(=O)CNC(=O)[C@@H](N)CCC(=O)O)[C@@H](C)O)[C@@H](C)CC)C(=O)N[C@@H](C)C(=O)N[C@@H](CCSC)C(=O)N[C@@H](CC(=O)O)C(=O)N[C@@H](CCCCN)C(=O)N[C@H](C(=O)N[C@@H](CCCCNC(=O)CCCCCCCCCCCCCCC(=O)O)C(=O)N[C@@H](CCC(N)=O)C(=O)N[C@@H](CCC(N)=O)C(=O)N[C@@H](CC(=O)O)C(=O)N[C@@H](Cc1ccccc1)C(=O)N[C@H](C(=O)N[C@@H](CCC(=O)O)C(=O)N[C@@H](Cc1c[nH]c2ccccc12)C(=O)N[C@@H](CC(C)C)C(=O)N[C@@H](CC(C)C)C(=O)N[C@@H](C)C(=O)N[C@@H](CCC(=O)O)C(=O)N[C@@H](CCCCN)C(=O)N1CCC[C@H]1C(=O)N[C@@H](CO)C(=O)N[C@@H](CO)C(=O)NCC(=O)N[C@@H](C)C(=O)N1CCC[C@H]1C(=O)N1CCC[C@H]1C(=O)N1CCC[C@H]1C(=O)N[C@@H](CO)C(=O)O)C(C)C)[C@@H](C)CC
Take B1: the “nM (Kb, Gaddum assay, cAMP)” value was 14 nM and the “pKb (Gaddum assay, cAMP)” value was found to be 7.9.

B2: AT745 (peptide)
peptide: EGTFISDYSIAMDKIK(C16 diacid)QQAFVEWLLAQKPSSGAPPPS-OH
modifications: N-terminus assumed
SMILES: CC[C@H](C)[C@H](NC(=O)[C@H](CO)NC(=O)[C@H](Cc1ccc(O)cc1)NC(=O)[C@H](CC(=O)O)NC(=O)[C@H](CO)NC(=O)[C@@H](NC(=O)[C@H](Cc1ccccc1)NC(=O)[C@@H](NC(=O)CNC(=O)[C@@H](N)CCC(=O)O)[C@@H](C)O)[C@@H](C)CC)C(=O)N[C@@H](C)C(=O)N[C@@H](CCSC)C(=O)N[C@@H](CC(=O)O)C(=O)N[C@@H](CCCCN)C(=O)N[C@H](C(=O)N[C@@H](CCCCNC(=O)CCCCCCCCCCCCCCC(=O)O)C(=O)N[C@@H](CCC(N)=O)C(=O)N[C@@H](CCC(N)=O)C(=O)N[C@@H](C)C(=O)N[C@@H](Cc1ccccc1)C(=O)N[C@H](C(=O)N[C@@H](CCC(=O)O)C(=O)N[C@@H](Cc1c[nH]c2ccccc12)C(=O)N[C@@H](CC(C)C)C(=O)N[C@@H](CC(C)C)C(=O)N[C@@H](C)C(=O)N[C@@H](CCC(N)=O)C(=O)N[C@@H](CCCCN)C(=O)N1CCC[C@H]1C(=O)N[C@@H](CO)C(=O)N[C@@H](CO)C(=O)NCC(=O)N[C@@H](C)C(=O)N1CCC[C@H]1C(=O)N1CCC[C@H]1C(=O)N1CCC[C@H]1C(=O)N[C@@H](CO)C(=O)O)C(C)C)[C@@H](C)CC
For B2, the “nM (Kb, Gaddum assay, cAMP)” value was 0.49 nM and the “pKb (Gaddum assay, cAMP)” value was determined as 9.3.

B3: AT741 (peptide)
peptide: EGTFISDYSIAMDK(C16 diacid)IHQQDFVEWLLAQKPSSGAPPPS-OH
modifications: N-terminus assumed
SMILES: CC[C@H](C)[C@H](NC(=O)[C@H](CO)NC(=O)[C@H](Cc1ccc(O)cc1)NC(=O)[C@H](CC(=O)O)NC(=O)[C@H](CO)NC(=O)[C@@H](NC(=O)[C@H](Cc1ccccc1)NC(=O)[C@@H](NC(=O)CNC(=O)[C@@H](N)CCC(=O)O)[C@@H](C)O)[C@@H](C)CC)C(=O)N[C@@H](C)C(=O)N[C@@H](CCSC)C(=O)N[C@@H](CC(=O)O)C(=O)N[C@@H](CCCCNC(=O)CCCCCCCCCCCCCCC(=O)O)C(=O)N[C@H](C(=O)N[C@@H](Cc1c[nH]cn1)C(=O)N[C@@H](CCC(N)=O)C(=O)N[C@@H](CCC(N)=O)C(=O)N[C@@H](CC(=O)O)C(=O)N[C@@H](Cc1ccccc1)C(=O)N[C@H](C(=O)N[C@@H](CCC(=O)O)C(=O)N[C@@H](Cc1c[nH]c2ccccc12)C(=O)N[C@@H](CC(C)C)C(=O)N[C@@H](CC(C)C)C(=O)N[C@@H](C)C(=O)N[C@@H](CCC(N)=O)C(=O)N[C@@H](CCCCN)C(=O)N1CCC[C@H]1C(=O)N[C@@H](CO)C(=O)N[C@@H](CO)C(=O)NCC(=O)N[C@@H](C)C(=O)N1CCC[C@H]1C(=O)N1CCC[C@H]1C(=O)N1CCC[C@H]1C(=O)N[C@@H](CO)C(=O)O)C(C)C)[C@@H](C)CC
On to B3, for which the “nM (Kb, Gaddum assay, cAMP)” value came to 11 nM and the “pKb (Gaddum assay, cAMP)” value amounted to 7.9.

B4: AT742 (peptide)
peptide: EGTFISDYSIAMDKK(C16 diacid)HQQDFVEWLLAQKPSSGAPPPS-OH
modifications: N-terminus assumed
SMILES: CC[C@H](C)[C@H](NC(=O)[C@H](CO)NC(=O)[C@H](Cc1ccc(O)cc1)NC(=O)[C@H](CC(=O)O)NC(=O)[C@H](CO)NC(=O)[C@@H](NC(=O)[C@H](Cc1ccccc1)NC(=O)[C@@H](NC(=O)CNC(=O)[C@@H](N)CCC(=O)O)[C@@H](C)O)[C@@H](C)CC)C(=O)N[C@@H](C)C(=O)N[C@@H](CCSC)C(=O)N[C@@H](CC(=O)O)C(=O)N[C@@H](CCCCN)C(=O)N[C@@H](CCCCNC(=O)CCCCCCCCCCCCCCC(=O)O)C(=O)N[C@@H](Cc1c[nH]cn1)C(=O)N[C@@H](CCC(N)=O)C(=O)N[C@@H](CCC(N)=O)C(=O)N[C@@H](CC(=O)O)C(=O)N[C@@H](Cc1ccccc1)C(=O)N[C@H](C(=O)N[C@@H](CCC(=O)O)C(=O)N[C@@H](Cc1c[nH]c2ccccc12)C(=O)N[C@@H](CC(C)C)C(=O)N[C@@H](CC(C)C)C(=O)N[C@@H](C)C(=O)N[C@@H](CCC(N)=O)C(=O)N[C@@H](CCCCN)C(=O)N1CCC[C@H]1C(=O)N[C@@H](CO)C(=O)N[C@@H](CO)C(=O)NCC(=O)N[C@@H](C)C(=O)N1CCC[C@H]1C(=O)N1CCC[C@H]1C(=O)N1CCC[C@H]1C(=O)N[C@@H](CO)C(=O)O)C(C)C
Regarding B4, the “nM (Kb, Gaddum assay, cAMP)” value worked out at 32 nM and the “pKb (Gaddum assay, cAMP)” value was 7.5.

B5: AT746 (peptide)
peptide: EGTFISDYAIAMDKIK(C16 diacid)QQDFVEWLLAQKPSSGAPPPS-OH
modifications: N-terminus assumed
SMILES: CC[C@H](C)[C@H](NC(=O)[C@H](C)NC(=O)[C@H](Cc1ccc(O)cc1)NC(=O)[C@H](CC(=O)O)NC(=O)[C@H](CO)NC(=O)[C@@H](NC(=O)[C@H](Cc1ccccc1)NC(=O)[C@@H](NC(=O)CNC(=O)[C@@H](N)CCC(=O)O)[C@@H](C)O)[C@@H](C)CC)C(=O)N[C@@H](C)C(=O)N[C@@H](CCSC)C(=O)N[C@@H](CC(=O)O)C(=O)N[C@@H](CCCCN)C(=O)N[C@H](C(=O)N[C@@H](CCCCNC(=O)CCCCCCCCCCCCCCC(=O)O)C(=O)N[C@@H](CCC(N)=O)C(=O)N[C@@H](CCC(N)=O)C(=O)N[C@@H](CC(=O)O)C(=O)N[C@@H](Cc1ccccc1)C(=O)N[C@H](C(=O)N[C@@H](CCC(=O)O)C(=O)N[C@@H](Cc1c[nH]c2ccccc12)C(=O)N[C@@H](CC(C)C)C(=O)N[C@@H](CC(C)C)C(=O)N[C@@H](C)C(=O)N[C@@H](CCC(N)=O)C(=O)N[C@@H](CCCCN)C(=O)N1CCC[C@H]1C(=O)N[C@@H](CO)C(=O)N[C@@H](CO)C(=O)NCC(=O)N[C@@H](C)C(=O)N1CCC[C@H]1C(=O)N1CCC[C@H]1C(=O)N1CCC[C@H]1C(=O)N[C@@H](CO)C(=O)O)C(C)C)[C@@H](C)CC
For the molecule B5, the “nM (Kb, Gaddum assay, cAMP)” value was 0.97 nM and the “pKb (Gaddum assay, cAMP)” value was 9.

B6: AT744 (peptide)
peptide: EGTFISDYSIAMDKIHQQDFVEWLLAQKPSSGAPPPSK(C16 diacid)-OH
modifications: N-terminus assumed
SMILES: CC[C@H](C)[C@H](NC(=O)[C@H](CO)NC(=O)[C@H](Cc1ccc(O)cc1)NC(=O)[C@H](CC(=O)O)NC(=O)[C@H](CO)NC(=O)[C@@H](NC(=O)[C@H](Cc1ccccc1)NC(=O)[C@@H](NC(=O)CNC(=O)[C@@H](N)CCC(=O)O)[C@@H](C)O)[C@@H](C)CC)C(=O)N[C@@H](C)C(=O)N[C@@H](CCSC)C(=O)N[C@@H](CC(=O)O)C(=O)N[C@@H](CCCCN)C(=O)N[C@H](C(=O)N[C@@H](Cc1c[nH]cn1)C(=O)N[C@@H](CCC(N)=O)C(=O)N[C@@H](CCC(N)=O)C(=O)N[C@@H](CC(=O)O)C(=O)N[C@@H](Cc1ccccc1)C(=O)N[C@H](C(=O)N[C@@H](CCC(=O)O)C(=O)N[C@@H](Cc1c[nH]c2ccccc12)C(=O)N[C@@H](CC(C)C)C(=O)N[C@@H](CC(C)C)C(=O)N[C@@H](C)C(=O)N[C@@H](CCC(N)=O)C(=O)N[C@@H](CCCCN)C(=O)N1CCC[C@H]1C(=O)N[C@@H](CO)C(=O)N[C@@H](CO)C(=O)NCC(=O)N[C@@H](C)C(=O)N1CCC[C@H]1C(=O)N1CCC[C@H]1C(=O)N1CCC[C@H]1C(=O)N[C@@H](CO)C(=O)N[C@@H](CCCCNC(=O)CCCCCCCCCCCCCCC(=O)O)C(=O)O)C(C)C)[C@@H](C)CC
For B6, the “nM (Kb, Gaddum assay, cAMP)” value came out at 4.8 nM and the “pKb (Gaddum assay, cAMP)” value was found to be 8.3.
